According to patent US20050282743A1, “Molecular interactions in cells” (Arbor Vita Corporation, priority 2001, published 2005):

How the values were obtained:
Assay in all cases: G' assay
[1] = target: T1, GST-APXL-1 PDZ domain 1 (Homo sapiens (Human)), Q13796
T1 chain: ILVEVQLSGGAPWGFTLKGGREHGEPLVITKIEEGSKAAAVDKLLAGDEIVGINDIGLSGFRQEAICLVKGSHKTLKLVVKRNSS

[2] = target: T2, GST-KIAA0807(S) PDZ domain 1 (Homo sapiens (Human)), Q6P0Q8
T2 chain: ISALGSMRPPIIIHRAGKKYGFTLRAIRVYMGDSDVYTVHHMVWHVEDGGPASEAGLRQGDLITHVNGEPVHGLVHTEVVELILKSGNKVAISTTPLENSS

[3] = target: GST-KIAA807 [GST: P08515]
GST-KIAA807 [GST: P08515], sequence (P08515 whole entry, the tested form may be a part): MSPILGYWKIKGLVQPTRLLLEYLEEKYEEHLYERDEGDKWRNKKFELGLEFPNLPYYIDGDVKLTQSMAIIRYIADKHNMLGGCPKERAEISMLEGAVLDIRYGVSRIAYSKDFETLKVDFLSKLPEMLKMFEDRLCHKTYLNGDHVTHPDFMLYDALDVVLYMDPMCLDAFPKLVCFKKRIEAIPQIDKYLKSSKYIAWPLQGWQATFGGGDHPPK

[4] = target: T3, GST-PDZK1 PDZ domains 2, 3, 4, Q5T2W1
T3 chain: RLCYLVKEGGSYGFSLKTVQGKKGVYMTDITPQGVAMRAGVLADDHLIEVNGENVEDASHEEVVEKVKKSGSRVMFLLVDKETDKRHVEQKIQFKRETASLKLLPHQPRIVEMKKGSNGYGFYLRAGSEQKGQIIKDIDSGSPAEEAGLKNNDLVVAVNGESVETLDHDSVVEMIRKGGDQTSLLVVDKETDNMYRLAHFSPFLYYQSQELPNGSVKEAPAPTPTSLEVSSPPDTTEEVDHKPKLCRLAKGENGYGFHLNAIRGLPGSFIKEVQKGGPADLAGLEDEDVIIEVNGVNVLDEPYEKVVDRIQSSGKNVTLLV

[5] = target: T4, GST-Shank 1 PDZ domain 1 (Homo sapiens (Human)), Q9UPX8
T4 chain: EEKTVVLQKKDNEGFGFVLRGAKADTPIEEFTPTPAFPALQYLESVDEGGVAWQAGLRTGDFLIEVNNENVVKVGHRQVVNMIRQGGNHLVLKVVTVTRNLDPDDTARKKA

[6] = target: T5, GST-Syntrophin 1 alpha PDZ domain 1 (Homo sapiens (Human)), Q13424
T5 chain: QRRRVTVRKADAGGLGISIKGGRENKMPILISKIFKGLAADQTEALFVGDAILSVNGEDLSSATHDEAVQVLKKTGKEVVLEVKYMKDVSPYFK

[7] = target: T6, GST-KIAA1719 PDZ domain 6 (Homo sapiens (Human)), Q9C0E4
T6 chain: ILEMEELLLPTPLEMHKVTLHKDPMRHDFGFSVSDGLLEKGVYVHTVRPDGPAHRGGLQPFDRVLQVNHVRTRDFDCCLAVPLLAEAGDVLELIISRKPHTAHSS

[8] = target: GST-PAR3 PDZ domain 3 (Homo sapiens (Human)), Q8TEW0
GST-PAR3 PDZ domain 3 (Homo sapiens (Human)), Q8TEW0, sequence (Q8TEW0 579-681): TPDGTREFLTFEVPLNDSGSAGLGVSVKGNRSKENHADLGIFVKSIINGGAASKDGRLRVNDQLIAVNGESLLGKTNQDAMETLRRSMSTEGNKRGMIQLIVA

[9] = target: GST-Atrophin-1 Interacting Protein PDZ domain 5 (Rattus norvegicus (Rat)), O88382
GST-Atrophin-1 Interacting Protein PDZ domain 5 (Rattus norvegicus (Rat)), O88382, sequence (O88382 1128-1225): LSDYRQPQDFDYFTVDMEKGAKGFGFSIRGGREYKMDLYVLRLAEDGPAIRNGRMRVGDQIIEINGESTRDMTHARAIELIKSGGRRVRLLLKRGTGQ

[10] = target: GST-BAI-1 Associated Protein PDZ domain 6 (Homo sapiens (Human)), Q96QZ7
GST-BAI-1 Associated Protein PDZ domain 6 (Homo sapiens (Human)), Q96QZ7, sequence (Q96QZ7 1143-1233): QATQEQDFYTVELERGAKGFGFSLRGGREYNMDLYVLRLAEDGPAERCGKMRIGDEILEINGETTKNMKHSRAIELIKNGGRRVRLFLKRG

[11] = target: T7, GST-EZRIN Binding Protein 50 PDZ domain 1 (Homo sapiens (Human)), O14745
T7 chain: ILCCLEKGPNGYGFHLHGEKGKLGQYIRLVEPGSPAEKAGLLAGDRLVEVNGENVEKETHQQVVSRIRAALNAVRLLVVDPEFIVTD

[12] = target: T8, GST-EZRIN Binding Protein 50 PDZ domain 2 (Homo sapiens (Human)), O14745
T8 chain: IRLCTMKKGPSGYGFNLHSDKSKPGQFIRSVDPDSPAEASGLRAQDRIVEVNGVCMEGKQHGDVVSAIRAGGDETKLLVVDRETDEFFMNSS

[13] = target: T9, GST-FLJ 10324 PDZ domain 1 [GST: P08515]
T9 chain: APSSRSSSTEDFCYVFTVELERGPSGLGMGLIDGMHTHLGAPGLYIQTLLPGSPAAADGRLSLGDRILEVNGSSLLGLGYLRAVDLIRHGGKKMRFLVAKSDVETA

[14] = target: T10, GST-HEMBA 1003117 PDZ domain 1 (Homo sapiens (Human)), Q96JH8
T10 chain: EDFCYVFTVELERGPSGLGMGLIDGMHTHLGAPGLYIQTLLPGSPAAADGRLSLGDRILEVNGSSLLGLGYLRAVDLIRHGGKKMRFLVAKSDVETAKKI

[15] = target: T11, GST-INADL PDZ domain 3 (Homo sapiens (Human)), Q8NI35
T11 chain: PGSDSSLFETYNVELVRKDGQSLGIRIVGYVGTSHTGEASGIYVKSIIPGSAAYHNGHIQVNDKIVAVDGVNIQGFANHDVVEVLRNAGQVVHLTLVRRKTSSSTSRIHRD

[16] = target: GST-KIAA0147 PDZ domain 1 (Homo sapiens (Human)), Q14160
GST-KIAA0147 PDZ domain 1 (Homo sapiens (Human)), Q14160, sequence (Q14160 other isoform, or with tags, fused parts or gaps): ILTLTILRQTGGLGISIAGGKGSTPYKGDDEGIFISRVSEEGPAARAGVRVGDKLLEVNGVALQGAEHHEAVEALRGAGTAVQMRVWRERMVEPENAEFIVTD

[17] = target: T12, GST-KIAA0382 PDZ domain 1 (Canis lupus familiaris (Dog) (Canis familiaris)), A0A8I3
T12 chain: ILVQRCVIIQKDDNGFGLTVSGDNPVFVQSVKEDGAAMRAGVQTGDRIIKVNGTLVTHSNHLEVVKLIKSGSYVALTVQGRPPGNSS

[18] = target: GST-KIAA1634 PDZ domain 5 (Homo sapiens (Human)), Q5TCQ9
GST-KIAA1634 PDZ domain 5 (Homo sapiens (Human)), Q5TCQ9, sequence (Q5TCQ9 other isoform, or with tags, fused parts or gaps): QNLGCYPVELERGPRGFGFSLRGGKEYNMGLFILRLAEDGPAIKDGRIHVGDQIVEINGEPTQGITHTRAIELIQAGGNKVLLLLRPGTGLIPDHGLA

[19] = target: T13, GST-LIM Mystique PDZ domain 1 (Homo sapiens (Human)), Q96JY6
T13 chain: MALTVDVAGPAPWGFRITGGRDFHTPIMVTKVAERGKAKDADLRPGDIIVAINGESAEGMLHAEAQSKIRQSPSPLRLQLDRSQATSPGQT

[20] = target: T14, GST-LIM-RIL PDZ domain 1 (Homo sapiens (Human)), P50479
T14 chain: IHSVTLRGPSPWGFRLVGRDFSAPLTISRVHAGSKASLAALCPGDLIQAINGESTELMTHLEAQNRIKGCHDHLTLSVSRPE

[21] = target: T15, GST-Shank 3 PDZ domain 1 (human (hypothetical, computer cloned)), Q9BYB0
T15 chain: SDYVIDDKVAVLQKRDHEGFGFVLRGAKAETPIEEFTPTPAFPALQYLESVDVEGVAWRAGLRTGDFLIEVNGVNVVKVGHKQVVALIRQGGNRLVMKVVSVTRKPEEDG

[22] = target: T16, GST-MINT1 PDZ domain 2 (Mus musculus (Mouse)), B2RUJ5
T16 chain: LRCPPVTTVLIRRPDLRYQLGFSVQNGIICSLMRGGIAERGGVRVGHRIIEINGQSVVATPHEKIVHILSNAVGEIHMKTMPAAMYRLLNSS

[23] = target: T17, GST-MUPP1 PDZ domain 11 (Homo sapiens (Human)), O75970
T17 chain: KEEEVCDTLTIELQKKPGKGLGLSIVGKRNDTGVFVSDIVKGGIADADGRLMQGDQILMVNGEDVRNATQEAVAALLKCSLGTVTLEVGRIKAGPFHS

[24] = target: T18, GST-AF6 PDZ domain 1 (Homo sapiens (Human)), P55196
T18 chain: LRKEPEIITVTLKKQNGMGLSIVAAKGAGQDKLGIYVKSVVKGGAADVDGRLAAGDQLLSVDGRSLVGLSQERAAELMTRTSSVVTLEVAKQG

[25] = target: T19, GST-PTPL1 PDZ domain 4 (Homo sapiens (Human)), Q12923
T19 chain: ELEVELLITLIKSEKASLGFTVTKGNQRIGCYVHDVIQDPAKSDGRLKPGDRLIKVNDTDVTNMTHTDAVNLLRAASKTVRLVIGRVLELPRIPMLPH

[26] = target: GST-KIAA1634 PDZ domain 1 (Homo sapiens (Human)), Q5TCQ9
GST-KIAA1634 PDZ domain 1 (Homo sapiens (Human)), Q5TCQ9, sequence (Q5TCQ9 401-502): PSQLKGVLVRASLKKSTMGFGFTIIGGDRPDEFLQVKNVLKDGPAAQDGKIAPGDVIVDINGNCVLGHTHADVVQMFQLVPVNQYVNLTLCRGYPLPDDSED

[27] = target: T20, GST-MINT1 PDZ domains 1, 2, Q02410
T20 chain: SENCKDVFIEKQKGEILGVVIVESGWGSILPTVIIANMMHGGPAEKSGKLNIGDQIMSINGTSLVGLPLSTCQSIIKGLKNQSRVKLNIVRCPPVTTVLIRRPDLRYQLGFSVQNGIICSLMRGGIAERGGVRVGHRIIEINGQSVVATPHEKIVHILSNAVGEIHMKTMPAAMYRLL
Also: key of the grades not given here.

B1: GABA transporter 3 (peptide)
peptide: DAKLKSDGTIAAITEKETHF
modifications: not checked
Classification [1]: 1 A450 class | Classification [2]: 1 A450 class | Classification [3]: 1 A450 class | Classification [4]: 1 A450 class | Classification [5]: 1 A450 class | Classification [6]: 1 A450 class

B2: Glycophorin C (peptide)
peptide: QGDPALQDAGDSSRKEYFI
modifications: not checked
Classification [7]: 1 A450 class | Classification [8]: 2 A450 class

B3: DOCK2 (peptide)
peptide: LASKSAEEGKQIPDSLSTDL
modifications: not checked
Classification [1]: 2 A450 class | Classification [9]: 1 A450 class | Classification [10]: 1 A450 class | Classification [11]: 1 A450 class | Classification [12]: 2 A450 class | Classification [13]: 1 A450 class | Classification [14]: 1 A450 class | Classification [15]: 1 A450 class | Classification [16]: 1 A450 class | Classification [17]: 1 A450 class | Classification [2]: 4 A450 class | Classification [18]: 1 A450 class | Classification [3]: 5 A450 class | Classification [19]: 1 A450 class | Classification [20]: 1 A450 class | Classification [5]: 1 A450 class | Classification [21]: 1 A450 class

B4: ephrin A2 (peptide)
peptide: RIAYSLLGLKDQVNTVGIPI
modifications: not checked
Classification [17]: 1 A450 class | Classification [7]: 1 A450 class | Classification [22]: 1 A450 class | Classification [23]: 1 A450 class

B5: JAM (junctional adhesion molecule) (peptide)
peptide: YSQPSARSEGEFKQTSSFLV
modifications: not checked
Classification [24]: 1 A450 class | Classification [15]: 1 A450 class | Classification [25]: 1 A450 class

B6: Nectin 2 (peptide)
peptide: SSPDSSYQGKGFVMSRAMYV
modifications: not checked
Classification [24]: 2 A450 class | Classification [26]: 1 A450 class | Classification [27]: 2 A450 class
